# Assay results taken from article PMC10641220, “Pseudomonas aeruginosa AlgF is a protein–protein interaction mediator required for acetylation of the alginate exopolysaccharide” (The Journal of Biological Chemistry, 2023).
# T1: AlgJPp^75-370 (Pseudomonas putida, UniProt Q88ND3 75-370)
# T1 construct: AlgJ of Pseudomonas putida, residues 75-370
# T1 sequence (looked up): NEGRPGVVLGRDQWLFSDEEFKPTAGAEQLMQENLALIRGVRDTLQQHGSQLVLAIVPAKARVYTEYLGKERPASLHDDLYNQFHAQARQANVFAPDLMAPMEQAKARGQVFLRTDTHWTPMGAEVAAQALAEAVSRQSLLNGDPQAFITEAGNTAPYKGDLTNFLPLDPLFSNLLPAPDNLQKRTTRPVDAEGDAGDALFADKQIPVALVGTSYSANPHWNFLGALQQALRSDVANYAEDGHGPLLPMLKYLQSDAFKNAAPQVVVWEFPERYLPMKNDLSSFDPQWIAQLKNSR
# T2: AlgXPp (Pseudomonas putida KT2440, UniProt Q88ND0 25-479)
# T2 construct: AlgX of Pseudomonas putida KT2440, codon-optimized synthetic gene of full-length AlgXPp in pET24b; AlgX is a periplasmic protein
# T2 sequence (looked up): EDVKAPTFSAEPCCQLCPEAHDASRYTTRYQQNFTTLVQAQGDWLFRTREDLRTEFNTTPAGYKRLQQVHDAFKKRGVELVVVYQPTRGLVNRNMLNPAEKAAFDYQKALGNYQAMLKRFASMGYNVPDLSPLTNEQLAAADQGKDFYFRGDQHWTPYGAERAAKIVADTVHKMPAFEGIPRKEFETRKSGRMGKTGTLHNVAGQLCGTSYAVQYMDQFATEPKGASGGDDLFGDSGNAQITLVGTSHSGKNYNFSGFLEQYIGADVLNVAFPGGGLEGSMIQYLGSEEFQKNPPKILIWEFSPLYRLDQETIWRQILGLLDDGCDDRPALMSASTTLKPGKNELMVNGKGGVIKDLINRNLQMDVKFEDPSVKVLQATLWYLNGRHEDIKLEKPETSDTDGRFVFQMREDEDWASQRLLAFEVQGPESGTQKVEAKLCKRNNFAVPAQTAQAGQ
# B1: AlgFPp^29-215 (domain or fragment, Pseudomonas putida KT2440, UniProt Q88ND4 29-215, looked up)
# chain: DAALYGPSAPKGSTFVRLYNATSAPAAASVGNTQIKQVGAQASSDFSFLPGGDYTAQVGGKSVPVKLASDKYYTLVNSNSGSPKLIEEPPFKNKQKALVRVQNLSDQQLTLKTADGKTEVVKPVAANGRGEREINPVKVNLALYQGDKKVGDVKPVALERGEAAVLYVTGSGNALSPVWVTRPVASN
# notes: the results text calls the construct 30-215; Cloned in pET28a with a 3' stop codon; also called AlgFPp^30-215; source: E. coli BL21 CodonPlus (λDE3), purified (Ni-NTA, Superdex 200 SEC)
# Assays:
# AlgJPp^75-370 = biological target: T1, AlgJPp^75-370; assay: ITC; MicroCal Auto-ITC200, 20 °C, 50 mM Tris pH 7.8, 150 mM NaCl, 2% glycerol, 50 mM arginine, 50 mM glutamic acid; 1.86 mM AlgJ (syringe) into 188 μM AlgF (cell); 4.17 mM AlgF (syringe) into 500 μM AlgX (cell); 2.97 mM AlgJ (syringe) into 170 μM AlgX (cell); conditions: both partners purified
# AlgXPp = biological target: T2, AlgXPp; assay: as above; conditions: both partners purified
binder,measurement,setting,value
B1,Kd,AlgJPp^75-370,86 ± 12 µM
same,Kd,AlgXPp,178 ± 5 µM
